In patent US20240059789A1 (Janssen / Centocor, published 2024):

Key:
[1] = target: T1, Human PSMA on prostate cancer cell lines (C4-2B, 22RV1) (human, UniProt Q04609 1-750); assay: flow cytometry on 22RV1 cells; 22RV1 cells
T1 construct: Endogenous PSMA of the human cell lines; also called PSMA+ cells; PSMA-expressing cell lines

[2] = target: T1, Human PSMA on prostate cancer cell …; assay: flow cytometry on C4-2B cells
Procedure: Selected anti-PSMA antibodies were evaluated for binding to commercial prostate cancer cell lines. C4-2B cells were originally developed at MD Anderson and are derived from LNCaP FGC grown in vivo and metastasize to bone marrow (Thalmann, et al 1994, Cancer Research 54, 2577-81). 22Rv1 cells are a human prostate carcinoma epithelial cell line derived from a xenograft that was serially propagated in mice after castration-induced regression and relapse of the parental, androgen-dependent CWR22 xenograft. 22RV1 and C4-2B cells were plated at 50,000 cells per well in 50 μl of assay medium (RPMI, 10% HI FBS) in V bottom plates. Serial dilutions of antibodies were prepared in assay medium with 50 μl of antibody dilutions added to the plates containing cells. The plates were incubated for 60 min at 37° C. at which time 100 μl of staining buffer (Becton Dickinson Cat #554657) was added to all wells of each plate. The plates were centrifuged at 300×G for 5 minutes and the medium was removed from the wells. 200 μl of staining buffer was added to all wells of each plate. The plates were centrifuged at 300×G for 5 minutes and the medium was removed from the wells. 50 μl of 2 μg/ml AlexaFluor647-labeled goat anti-human Fc was added to all wells of the plates and the plates were incubated for 30 minutes at 4° C. 150 μl of staining buffer was added to all wells of each plate. The plates were centrifuged at 300×G for 5 minutes and the medium was removed from the wells.

[3] = target: Avi-6xHis-GS-mouse PSMA (45-752) (PSMW29) (Mus musculus, UniProt O35409 45-752); assay: SPR Biacore 8K, mAb captured by anti-Fc, antigen in solution
Procedure: (§1) The association and dissociation were monitored for 3 and 15 minutes, respectively, using a flow rate of 50 μL/min. Raw binding data was referenced by subtracting the analyte binding signals from blanks and analyzed using a 1:1 Langmuir binding model using the Biacore Insight evaluation software to obtain the kinetics, which were used to calculate the binding affinity. The anti-PSMA were captured using an anti-human Fc antibody and the antigens were injected in solution.

[4] = target: T2, Human PSMA ECD (Lys44-Ala750), N-6xHis (PSMW39) (human, UniProt Q04609 44-750); assay: as above
T2 construct: also called PSMW39.002; hu PSMA
T2 sequence (Q04609 other isoform, or with tags, fused parts or gaps): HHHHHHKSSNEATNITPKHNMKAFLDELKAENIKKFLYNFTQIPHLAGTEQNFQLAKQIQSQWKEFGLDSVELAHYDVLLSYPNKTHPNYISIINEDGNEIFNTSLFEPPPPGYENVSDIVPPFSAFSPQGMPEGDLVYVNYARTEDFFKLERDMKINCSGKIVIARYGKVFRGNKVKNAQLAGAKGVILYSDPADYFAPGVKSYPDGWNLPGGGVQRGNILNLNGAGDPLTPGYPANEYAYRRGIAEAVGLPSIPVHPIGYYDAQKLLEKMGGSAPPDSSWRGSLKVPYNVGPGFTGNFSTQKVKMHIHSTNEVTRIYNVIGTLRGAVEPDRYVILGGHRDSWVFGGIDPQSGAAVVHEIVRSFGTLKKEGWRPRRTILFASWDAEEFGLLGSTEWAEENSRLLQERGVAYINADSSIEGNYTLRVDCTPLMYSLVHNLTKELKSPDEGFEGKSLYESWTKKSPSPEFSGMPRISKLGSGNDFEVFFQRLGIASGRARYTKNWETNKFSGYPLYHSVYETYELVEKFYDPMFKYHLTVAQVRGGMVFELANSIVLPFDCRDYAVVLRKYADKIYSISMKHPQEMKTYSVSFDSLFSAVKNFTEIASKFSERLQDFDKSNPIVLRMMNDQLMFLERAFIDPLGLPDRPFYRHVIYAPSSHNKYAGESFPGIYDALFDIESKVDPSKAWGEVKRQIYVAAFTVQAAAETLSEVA
Procedure: as §1

[5] = target: T3, Avi-6xHis-GS-cyno PSMA ECD (PSMW1) (Macaca fascicularis, UniProt Q04609 48-750 (human entry)); assay: as above
T3 construct: also called PSMW1.009; cy PSMA
T3 chain: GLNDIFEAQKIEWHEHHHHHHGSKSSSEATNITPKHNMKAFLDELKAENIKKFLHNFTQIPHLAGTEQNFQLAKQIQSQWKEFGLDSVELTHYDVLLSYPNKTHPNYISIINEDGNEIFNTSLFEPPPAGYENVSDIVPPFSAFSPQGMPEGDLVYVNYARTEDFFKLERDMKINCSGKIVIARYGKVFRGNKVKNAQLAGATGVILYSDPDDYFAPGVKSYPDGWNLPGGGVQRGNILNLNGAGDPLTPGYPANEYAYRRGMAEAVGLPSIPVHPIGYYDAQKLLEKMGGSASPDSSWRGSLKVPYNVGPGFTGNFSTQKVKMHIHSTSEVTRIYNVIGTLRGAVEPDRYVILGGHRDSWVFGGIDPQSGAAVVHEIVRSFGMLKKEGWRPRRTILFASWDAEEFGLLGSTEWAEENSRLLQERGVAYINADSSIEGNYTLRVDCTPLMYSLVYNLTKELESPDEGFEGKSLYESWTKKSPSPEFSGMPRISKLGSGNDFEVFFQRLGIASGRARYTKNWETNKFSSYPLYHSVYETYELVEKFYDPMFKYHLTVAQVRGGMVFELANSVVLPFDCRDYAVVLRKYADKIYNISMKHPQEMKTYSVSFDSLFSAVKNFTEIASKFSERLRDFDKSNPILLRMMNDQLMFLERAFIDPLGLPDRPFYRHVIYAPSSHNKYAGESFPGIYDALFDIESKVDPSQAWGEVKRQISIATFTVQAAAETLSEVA
Procedure: as §1

[6] = target: T1, Human PSMA on prostate cancer cell …; assay: binding curves on C4-2B cells, 37 C, 1 h incubation, four-parameter fit
Procedure: Molecule concentrations ranged from 500-0 nM over 12-points at 3-fold dilution. […] Values reported in the Table 32 were generated by fitting the data to a four-parameter function for ligand binding generating values for y-min, y-max, EC50, and Hill. EC90 were calculated using the equation EC90=(90[…](100−90))\hat{ }(1/Hill)*EC50.

T1 sequence (Q04609 whole entry): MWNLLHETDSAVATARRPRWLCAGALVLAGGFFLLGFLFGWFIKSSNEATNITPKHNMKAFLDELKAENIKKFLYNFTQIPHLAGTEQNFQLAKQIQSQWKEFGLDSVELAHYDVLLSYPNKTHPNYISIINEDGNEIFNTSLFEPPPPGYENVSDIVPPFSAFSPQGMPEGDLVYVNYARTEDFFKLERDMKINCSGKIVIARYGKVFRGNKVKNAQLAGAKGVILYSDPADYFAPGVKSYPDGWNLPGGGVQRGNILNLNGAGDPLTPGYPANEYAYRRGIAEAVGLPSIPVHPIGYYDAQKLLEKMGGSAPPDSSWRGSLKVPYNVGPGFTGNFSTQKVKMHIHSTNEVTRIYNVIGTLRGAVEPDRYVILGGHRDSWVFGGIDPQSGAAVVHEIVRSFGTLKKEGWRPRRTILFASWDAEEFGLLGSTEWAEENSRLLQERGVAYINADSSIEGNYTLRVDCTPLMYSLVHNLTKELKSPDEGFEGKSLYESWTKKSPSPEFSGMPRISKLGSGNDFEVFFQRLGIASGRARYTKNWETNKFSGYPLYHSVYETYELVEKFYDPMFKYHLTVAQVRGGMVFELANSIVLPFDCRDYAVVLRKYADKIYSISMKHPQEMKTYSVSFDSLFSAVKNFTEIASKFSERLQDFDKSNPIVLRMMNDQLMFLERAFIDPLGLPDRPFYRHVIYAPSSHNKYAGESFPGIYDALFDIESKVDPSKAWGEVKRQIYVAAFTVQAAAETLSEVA

Row | Binder | EC50 [1] [nM] | EC50 [2] [nM] | Kd [3] [nM] | Kd [4] [nM] | Kd [5] [nM] | fold binding signal (Y-max) over the average of the molecules [6] [fold]
1 | PSMB892 (antibody, human IgG1, lambda, L234A L235A, V domains shown) VH: EVQLVESGGGVVQPGRSLRLSCAASGFTFITYGMHWVRQAPGKGLEWVAVVSFDESNKYYADSVKGRFTISRDNSKNTLYLQMNSLRAEDTAVYYCARALRDGNNWDYFNGMDVWGQGTTVTVSS VL: QSVLTQPPSVSGAPGQRVTISCTGSSSNIGADYDVHWYQHLPGTAPKLLIYGNSNRPSGVPDRFSGSKSGTSASLAITGLQAEDETDYYCQSYDSSLSGWVFGGGTKLTVLG | > 60 | 22.4 | 0.404 | 3.22 | 5.67 | 
2 | PSMB1069 (bispecific antibody, human IgG1, kappa, L234A L235A, Null CD3 arm; one PSMA scFv; also called HC1 (ZWA): B23B62-Fab) heavy: not shown light: not shown QVQLVESGGGEVQPGRSLRLSCAASGFSFSGYGMHWVRQAPGKGLEWVAVMSYDGSNRFYVDSVRGRFSISRDNSKNTLYLQMNSLRPEDTAVYYCARDTVWGSHPDAFDIWGQGTVVTVSSGGSEGKSSGSGSESKSTGGSQSVLTQPPSVSVAPGQTARITCGGNNSGSKSVHWYQQKPGQAPVLVVYDDSDRPSGIPERFSGSNSGNTATLTISRVEAGDEADYYCQVWDSSSDHGVFGGGTKLTVLEPKSSDKTHTCPPCPAPEAAGGPSVFLFPPKPKDTLMISRTPEVTCVVVSVSHEDPEVKFNWYVDGVEVHNAKTKPREEQYNSTYRVVSVLTVLHQDWLNGKEYKCKVSNKALPAPIEKTISKAKGQPREPQVYVLPPSREEMTKNQVSLLCLVKGFYPSDIAVEWESNGQPENNYLTWPPVLDSDGSFFLYSKLTVDKSRWQQGNVFSCSVMHEALHNHYTQKSLSLSPG |  |  |  |  |  | 2
